According to the supplement of paper PMC7125110:
± gives the standard error. Fewer inactive variants are shown than the library holds.

B1: glmS ribozyme (parent)
chain: AUAAAAGCGCCAGAACUACAGAAAUGUAGUUGACGAGGAGGAGGUUUAUCGAAUUUUCGGCGGAUGCCUCCAAA

Variants of: B1
Test: self-cleavage kobs at 2500 uM GlcN6P; higher = faster cleavage; RNA array
Settings: with glucosamine-6-phosphate
Outline: (§1)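 Glucosamine-6-phosphate, from 40 μM to 10 mM in HEPES/KCl/Mg(OAc)2 buffer, was flowed over sequenced MiSeq chips carrying barcoded ribozyme variants transcribed in situ by E. coli RNA polymerase. A hybridised Cy3 probe tracked the variants at 37 °C as tiles were imaged over ~14 h. kobs, kcat and KM were obtained by fitting normalised per-tile medians to exponential decays and then applying weighted Michaelis–Menten fits across concentrations.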

Variant	self-cleavage kobs at 2500 uM GlcN6P [s⁻¹]
C11U U30G C68G	< 1e-05
A15U G29A G35U G37A U54A	< 1e-05
C16A G63C C67G	< 1e-05
A33C U54C C67G C68G C70U	< 1e-05
C10G A36G U45G U49A G66A C71U	< 1e-05
G37C G62U C71G	< 1e-05
A33U G35C G62A	< 1e-05
A6U C10A U49C C70G C71G	0.00019 ± 8.2e-05
C8A U45G U57A	< 1e-05
A12G A52G G62U	< 1e-05
A15C C16G A39C U46G U56C	< 1e-05
G62C A64G C70A	< 1e-05
G7A C34U G35U G37A G40A	< 1e-05
A15U C16U A33U A42U U57G G62C A64U	< 1e-05
C10A C34A U65C G66C C71G	< 1e-05
C10U G29C A36G G41U U54A	< 1e-05
A12U A15G C67A	0.00634 ± 0.0023
A12G A14U G41A G43A C50U G51A	< 1e-05
C10G C16G G35A A53U A64C	< 1e-05
G9C A33C G38C A39C U65G	< 1e-05
U46A A48U	6.88e-05 ± 2.5e-05
G32C G37U G40U U55G	< 1e-05
A14C A39U G43U A64U	< 1e-05
C11G A42C G43A C70U	< 1e-05
U45G A64U C68U	< 1e-05
C16A C34U G51U	< 1e-05

Variant	self-cleavage kobs at 2500 uM GlcN6P [s⁻¹]
G7A A48C U69G	< 1e-05
C50G C58G G62C	0.000553 ± 0.00021
C11U A42G U54G G66A	0.000265 ± 7.1e-05
C16U G35U G38U C50A	< 1e-05
G60U G66A	< 1e-05
C11U G13C G37C	< 1e-05
G13U G40A	6e-05 ± 1.2e-05
A15G G59U G63U	< 1e-05
G9U G59U C70U	< 1e-05
A15C G35C U69C	< 1e-05
A12C A36C C71A	< 1e-05
C10U A14U G44U C61U	< 1e-05
A15C G37A U65G	8.59e-05 ± 2.6e-05
A6C G13U G60U U65C	< 1e-05
U30G G32A A42U A48G	< 1e-05
U30A U46G C67U	0.00027 ± 0.0001
U30C G38C U46C	< 1e-05
A12U G41U U46C	9.28e-05 ± 3.6e-05
A14G G38A G40A	< 1e-05
G40U G43U U54A	< 1e-05
U30G C67U C71G	0.00027 ± 9.4e-05
G9C G38C C67U	< 1e-05
A15U A36G A39U	< 1e-05
C10U A53G C61A C67G	8.38e-05 ± 4.1e-05
U31C A36C U45G U65G C71U	< 1e-05
G51U C68U C71U	< 1e-05

Variant	self-cleavage kobs at 2500 uM GlcN6P [s⁻¹]
A53U U56G U65G	0.000913 ± 0.00018
A39G G44U A53G	0.000722 ± 0.00021
C16U C34A G59C U69A	< 1e-05
U31G A52C C58G	< 1e-05
A14U G40C A64G	6.98e-05 ± 1.7e-05
U30A G63A U69C	< 1e-05
G38A G60A	< 1e-05
U31G G38C G43U U47A A48C	< 1e-05
A12C C16G A42G G44C U45G U46A C61A G62C	< 1e-05
A15G G32C A53G	4.37e-05 ± 1.3e-05
G32U A42C U54A	< 1e-05
C8A U57C C70G C71U	< 1e-05
A14U A39G G41U	0.000106 ± 2.6e-05
A36C A42C U54C	< 1e-05
G38A C58A C70G	6.46e-05 ± 1.7e-05
G9U G40U U47G U65A	< 1e-05
U55G U65C	0.000396 ± 8.6e-05
A6C G13U C50G G62A C68U	0.000212 ± 9.7e-05
G32A C68G C70G	< 1e-05
A52U C61G G63C G66A	< 1e-05
A15U A39U U69C	0.000466 ± 0.00018
A33C G41C U69G	< 1e-05
G37U A39U G43U C67G	< 1e-05
A12C C50U G60U C67U	< 1e-05
A12C A42U C67U	7.04e-05 ± 1.6e-05
A14C U45A U56C	0.000421 ± 0.00012

Variant	self-cleavage kobs at 2500 uM GlcN6P [s⁻¹]
G40C G43U U56A	< 1e-05
G13A C34U G43U	< 1e-05
G63C G66U	< 1e-05
G7U C8U G35C G62A	< 1e-05
A12C A15C A39G A64G C70U	< 1e-05
C8G G35U A52G C61A	< 1e-05
U46C C50U C61U	< 1e-05
G38U C50G G62U	6.98e-05 ± 2e-05
G9A A14G U56G	5.76e-05 ± 2.3e-05
G38C A39G G59A	< 1e-05
A6G A15C G63A	< 1e-05
A53G U57C	0.000159 ± 4.1e-05
C16A U31C G41C	< 1e-05
C11A A33C A39G U45G	< 1e-05
A39C U47C U65A	9.45e-05 ± 3.8e-05
G35A A42U G44A	< 1e-05
C8G A14U A42U	< 1e-05
A6C C8U U45G U65C C67A	< 1e-05
A33C G35U A42G A48G	< 1e-05
U31C U45A U57C	4.12e-05 ± 1.4e-05
A6C C10G A36G	< 1e-05
C8A C16U U56A	< 1e-05
C16G G51U U57G	< 1e-05
U30G A42G G66U C71A	4.6e-05 ± 2.2e-05
G13U U31C C70U	0.000186 ± 4.5e-05
U30C G35C C50A C68A	< 1e-05

Variant	self-cleavage kobs at 2500 uM GlcN6P [s⁻¹]
C8A A53U C71U	< 1e-05
A39U G44U A53U	0.000583 ± 0.00016
A12C A33G G37U	< 1e-05
C16A A36G C67G	< 1e-05
A15C G60A G62U	< 1e-05
C34G U46A U47A U65C C68G	< 1e-05
G9U C10U C34U A53U G63U	< 1e-05
C50U G51C A53U	< 1e-05
C8G A14G U55G C58U U65G	< 1e-05
A33G G37A A52U	< 1e-05
G13U G29C G40C C50U A52C	< 1e-05
A15U C58G	2.95e-05 ± 1e-05
A15G G59A C70U	4.76e-05 ± 1.4e-05
U56G G60U G63C	< 1e-05
C11U G40C G44A G51A C61G C71A	< 1e-05
A28C U49G U55A	0.000284 ± 7.5e-05
A14G G40A G41C	0.00048 ± 0.0001
A6G A12C U55G	0.000177 ± 3.7e-05
C11G G44A U55A	< 1e-05
A6U A14G U56A	0.000586 ± 0.00023
G7A A39C G63A	< 1e-05
A36G A39U G62U	< 1e-05
G7C A36G U55C	< 1e-05
A6G A33G U54A U56C	< 1e-05
U31G A39G U57A A64G	5.58e-05 ± 2e-05
C10G C61G A64U	< 1e-05

Variants of: B1
Test: self-cleavage kobs at 640 uM GlcN6P; higher = faster cleavage; RNA array
Settings: with glucosamine-6-phosphate
Outline: as §1

Variant	self-cleavage kobs at 640 uM GlcN6P [s⁻¹]
C10G A36G U45G U49A G66A C71U	< 1e-05
G35U C61G	< 1e-05
C16U G35U U55A	< 1e-05
G7U C68G	0.000534 ± 0.00015
C11A U30G C34U C50G	0.000134 ± 2.8e-05
C11G U49C C68G U69C	< 1e-05
A12G A52G G62U	< 1e-05
G7A C34U G35U G37A G40A	< 1e-05
A12U A15G C67A	0.00125 ± 0.00035
U30C C34G	< 1e-05
G7A A48C U69G	< 1e-05
G60U G66A	< 1e-05
G7C G9U G62C	< 1e-05
C11U G13C G37C	< 1e-05
G13U G40A	5.97e-05 ± 1.3e-05
U30A U46G C67U	0.000117 ± 3.4e-05
U31C A36C U45G U65G C71U	< 1e-05
A15C A64C C71U	< 1e-05
G38A G60A	< 1e-05
A12C C16G A42G G44C U45G U46A C61A G62C	< 1e-05
G9U G40U U47G U65A	< 1e-05

Variant	self-cleavage kobs at 640 uM GlcN6P [s⁻¹]
A6C G13U C50G G62A C68U	0.000276 ± 0.0001
G35C C58A C67U	< 1e-05
A14C U45A U56C	8.23e-05 ± 3.9e-05
G63C G66U	< 1e-05
G40A G44U	< 1e-05
C10A U49C	< 1e-05
G38U C50G G62U	0.000714 ± 0.00023
C10U G43A C50A	< 1e-05
A53G U57C	0.000146 ± 4.6e-05
C16A U31C G41C	< 1e-05
C11A A33C A39G U45G	< 1e-05
A12C A33G G37U	< 1e-05
C10G C11A C58A G66U	< 1e-05
C16G G29U G35A	< 1e-05
C34U G41C A52U G60C U69G	< 1e-05
A6G A12C U55G	7.46e-05 ± 1.3e-05
C11G G44A U55A	< 1e-05
A14U A53U C67G	0.000162 ± 4.5e-05
C11U C16U A64U C71G	0.0021 ± 0.00087
C10G C61G A64U	< 1e-05

Variants of: B1
Test: self-cleavage kobs at 10000 uM GlcN6P; higher = faster cleavage; RNA array
Settings: with glucosamine-6-phosphate
Outline: as §1

Variant	self-cleavage kobs at 10000 uM GlcN6P [s⁻¹]
G35U C61G	< 1e-05
U30C C34G	< 1e-05
C11U G13C G37C	< 1e-05
G13U G40A	0.000183 ± 3.6e-05
G40U G43U U54A	< 1e-05
A15U A36G A39U	< 1e-05
A39G G44U A53G	0.000935 ± 0.00017
U55G U65C	0.000628 ± 0.00013
G63C G66U	< 1e-05
A53G U57C	0.0005 ± 8.7e-05
G13U U31C C70U	0.000187 ± 3.2e-05
C34G U46A U47A U65C C68G	< 1e-05
A15U C58G	4.63e-05 ± 1.2e-05
C34U G41C A52U G60C U69G	< 1e-05
A6U A14G U56A	0.00142 ± 0.00018
